Experimental data published in paper PMC5116005 (Journal of molecular biology, 2016).
Ends that are not written are not given here.

What was measured:
[1] = tested on: NtrC1^C oligomer; test: Native PAGE gel binding assay, dye fluorescence visualized at 488 nm; set-up: species or system Aquifex aeolicus; settings: 0.16 µM Alexa488-σ54(16-41), ADP-BeF3− at 500 µM, native PAGE 4–15%, Typhoon 488 nm
[2] = biological target: T1, NtrC1^C(121–387), central AAA+ ATPase domain of A. aeolicus NtrC1 (A. aeolicus, UniProt O67198 121-387); test: fluorescence polarisation
T1 sequence (looked up): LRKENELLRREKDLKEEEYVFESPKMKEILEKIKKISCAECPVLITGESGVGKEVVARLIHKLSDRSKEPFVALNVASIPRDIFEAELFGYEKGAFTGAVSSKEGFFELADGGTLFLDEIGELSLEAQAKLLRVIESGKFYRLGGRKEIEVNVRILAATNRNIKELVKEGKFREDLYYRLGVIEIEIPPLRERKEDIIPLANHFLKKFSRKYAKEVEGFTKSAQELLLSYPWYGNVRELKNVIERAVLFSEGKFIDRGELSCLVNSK

[3] = biological target: Alexa488-full length σ^54 (K2C) (UniProt P24255); test: fluorescence polarisation

In the case of “Alexa488-σ^54(16-41): σ54(16-41) with N-terminal Trp-Cys, cysteine derivatized with Alexa Fluor 488 maleimide (WC(Alexa Fluor 488 maleimide)LLLKQDLELLTYQTQELEKLIHEEVL)”, the “Binding to NtrC1^C oligomer on native gel with ADP-BeF3−” value [1] is reported as “bound to NtrC1^C”.

WC(Alexa Fluor 488 maleimide)LLLKQDLELLTYQTQELEKLIHEEVL [Alexa488-σ^54(16-41) (A.a. σ^54(WC-16-41))] showed a Kd [2] of 1 µM.

B1: NtrC1^C(121–387), central AAA+ ATPase domain of A. aeolicus NtrC1 (domain or fragment)
chain: T1 sequence (looked up)
B1 showed a Kd [3] of 2 µM.
